For this series, the system named is G. orontii MGH1. Put plainly: Spray-induced gene silencing (SIGS), G. orontii spore production on A. thaliana (whole plant and detached leaf assays). It counts as in vivo, Golovinomyces orontii. The conditions noted are these: for average reduction in spore production / effect on spore production: vs buffer control; for effect on spore production: long dsRNA.
Setting [1] is: A. thaliana detached leaf assay.

B1: 2 (nucleic acid, listed as Golovinomyces orontii)
chain: ATGTCTAGGCATACATCTGCATTTTTCGTTCTCTTTCCTACATTATTCGTCATATTAGCCAGTGCCTATCAATCACACTATGGCTCATCCTATCATCAGCAAGAGTCTCTTCAATCTGACGCACAATGGAATAGCAATATCTCTGATACTTTATTCCTGGAGCTAGAGGAACTAGCTCGTATCGTTGATATTGCTTACTGTGTTGGTACAACAGGAATCTCTAGCCCTTTTGTATGCGCCTCGCATTGCAGCGATTTTCCAAGCTTTGAACTCGTGGATACATTCCATTCAGGATACTTATTGGGCAATAGTTGCGGTTACATTGCACTTGATCATGCGTCGGACAATAACAGAGGACGAATACTGGTAGTTTTCAGGGGTACATACAGTATCGACGACACTATAATAGACCTGACTATGGTACCACAAAAGTACGCGCCATACCCGTCTCATCACGAAAATAATTTCAAAAGATCAGAATCAAGCCCACTTTTTAATTTAATACCTAGTAAAGAAATTCGGTCCCTCTTACGCTCATTCTCACGTATATTTCATCGTCGAAAAGGAAGTAGGCCAGAAAGACATATGCACTCTAACATTGAATGTACGAACTGCACTGTTCATATGGGATTTTGGACAAGCTACCAACAAATACGTCCTCATTTATTCTCCAAGATTAGTAGCCTTCGAAAAAAATTCCCTAACTATCGATTGGATTTAGTCGGACACTCACTAGGTGGCGCTGTTGCTGCTCTTGCTGGACTTGATCTTAAATTACTTGGATACGAACCTATCGTAACAACCTTTGGTGAGCCACGCGTTGGAAATACTGGATTCAGAGATTTCATGGATGCCACATTTAACCTACGCTCCCAGAACTCAGGGGGTCATTTAGACATGCCAAGCTGCAAAGATCACTATCGTAGAGTGACTCATACAAGTGATCCTATGCCATTACTACCGCCGCAAGATTTTGGCTATCGCCCACATGCTGGCGAGGTATTCATCTCAAAACGAGATCTTCCAGTGGCAATACAAGACGTTCGTCACTGTTTTGGTGACGATGATGTGAACTGTATCGAGGAAAGAGGAAACAATAGAGTTTGGACTGATTTATCTGAGACGTCGAAAATAAGAGCCGGCACCAAAGACTCCTTAGATGCCAGGGGTGGCGAATTGAAAAAACGAGATAGGGTACGATTACATCCTCCCCATCTTTGGCGACCCTTTCTAGCGCATCGTGACTATTTTTGGCGCCTAGGATTATGCGTTCCAGGAGATGATCCAACTGGTCAAGTAAGAGACGAGGTTTAG
modifications: listed as DNA
Turning to B1, where the note is “topical dsRNA against G. orontii target (Gor Seq ID), detached leaf assay, n>=3”, the “G. orontii Spore Production on Arabidopsis, Detached Leaf Assay, % reduction” value amounted to 67%. Besides, the “G. orontii Spore Production on Arabidopsis, Whole Plant Assay, % reduction” value (topical dsRNA against G. orontii target (Gor Seq ID), whole plant assay, n>=3) is listed as 41%.

B2: CYP51 dsRNA-1: long dsRNA targeting G. orontii MGH1 CYP51 (target SEQ ID NO:85); link to SEQ ID NO:212 likely (nucleic acid)
chain: TACGTGAAGAAGTGTCCCAGCTTCAAAGGACAAAAAGGCACCGTTAATATAACTGAAGTTATGGCTGAAATCACTATCTACACTGCTTCGCATACTCTACAAGGAAAACAGGTTCGTGACAGGTTTGATTCCTCTTTTGCCGCTCTCTATCATGACCTCGATATGGGGTTCACCCCAATTAATTTTGTGCTGCATTGGG
modifications: misc_feature 1..199: note = Inhibitory double stranded RNA; listed as RNA
In the case of B2, the “average reduction in spore production” value runs as follows: under setting [1], 30%; (A. thaliana whole plant assay) 46%. Moreover, the “visual powdery mildew coverage and density” value (A. thaliana plants, 9 days post infection, vs buffer control-sprayed plants) is “less powdery mildew coverage and density”.

B3: AATF dsRNA: long dsRNA against G. orontii apoptosis antagonizing transcription factor (target SEQ ID NO:92) (nucleic acid)
chain: TCCGAAGGAGAGTATTCATCAGAAACTCAGGTTTCAGAATACTCGGACGATCAACTCAACTCTGATAATCTTGAAGATGAAGAATCTGATAGTGATGATGATGATGATATTGGAGATGAAAGAACCGAACGATCCGAAATTCAGAAAATCATGAAAGAAGATCAAAAGACCGTGGTATCAACAATATCTCAAGCAGTAAAAGCAGATGTTGAAAAGGGTAAAGCTGTCAAGGCTCAGCGAATGAGATTCGATTGTTTGTTAAATGTACGAATGGCAATGCAAAA
modifications: misc_feature 1..284: note = Inhibitory double stranded RNA; listed as RNA
Turning to B3, the “average reduction in spore production” value amounted to 32% under setting [1] and 21% (A. thaliana whole plant assay).

B4: BCDO dsRNA: long dsRNA targeting G. orontii MGH1 BCDO (target SEQ ID NO:145) (nucleic acid)
chain: ACTGCTCATAGTAATCCTATCCTATTTGCCCGGCTCGACTCAGGTGATCAAAAGGATTAGTGTAGCTAACACCAATATCTTATACCATGATGGACGGGCTTTGGCGACCTGCGAAAGTGGCCCACCAATGAGAGTTGTTCTCCCTCATCTGGATACAGTCGGTTGGTTCGATGGGCTGAAGGTAGGGGGAGAAAAGGCTACCGATGAATCGGACGGTCAATCCTTTGCGAAAGAAGGAACCTTTAATGTATTGGATGGACGGACAAC
modifications: misc_feature 1..267: note = Inhibitory double stranded RNA; listed as RNA
Take B4: the “average reduction in spore production” value by setting is: under setting [1], 54%; (A. thaliana whole plant assay) 50%.

B5: OEC14 dsRNA: long dsRNA against G. orontii effector candidate 14 (target SEQ ID NO:124) (nucleic acid)
chain: CACAACAGCTCTCCTAATCTCTCCCTCCCTAGGAGTTAATTCAGCTCAGAACGGCGAAACTCCCGATGACGATTCATTAGGTTCTACGAAACACATGAACTTTGGCTCTGGTCTCTCTGAATTCAATGCTCATGAAGATATGTATGTTCCTGCCATGGATCTGAATGGGTTTAGAATAAAGCGACGACATTTTCAAAATGAAGGCTATTACTGCAGCAAATCG
modifications: misc_feature 1..223: note = Inhibitory double stranded RNA; listed as RNA
On to B5, for which, where the note is “A. thaliana whole plant assay”, the “effect on spore production” value is listed as “significantly reduced spore production”.

B6: LIPA dsRNA: long dsRNA against G. orontii TAG lipase A (target SEQ ID NO:2) (nucleic acid)
chain: CTCTTACGCTCATTCTCACGTATATTTCATCGTCGAAAAGGAAGTAGGCCAGAAAGACATATGCACTCTAACATTGAATGTACGAACTGCACTGTTCATATGGGATTTTGGACAAGCTACCAACAAATACGTCCTCATTTATTCTCCAAGATTAGTAGCCTTCGAAAAAAATTCCCTAACTATCGATTGGATTTAGTCGGACACTCACTAGGTGGCGCTGTTGCTGCTCTTGCTGGACTTGATCTTAAATTACTTGGATACGAACCTATCGTAACAAC
modifications: misc_feature 1..278: note = Inhibitory double stranded RNA; listed as RNA
As for B6, the “average reduction in spore production” value is 67% under setting [1] and 41% (A. thaliana whole plant assay).

B7: LIP1 dsRNA: long dsRNA against G. orontii TAG lipase 1 (target SEQ ID NO:1) (nucleic acid)
chain: ACCTCTGCTGGTTCTATCTCTGCTTTTAACTTATTAGTCGCCAAAGATGGTGCTTTATCTTATAATGGCAAACCGCTATTCCGTGCTGCTATTATGGACAGTGGTAGCATCGTGCCTACTGATGCGGTGAACTCCCCGAAGCCACAAAATGTTTTCGATCAAGTCGTGAGTGCTGGAGGCTGTAGTGAAGCATATGACAAAATTAGCTGTCTACGGAATCTCGACTACACCGAGTTTTTGTTCGCAAGTACATCAGTTCCTGGTCTATTTGACTACCAATCAGTAGCACTTTCATACATCCCGCGACCTGACGGTGATCTTTTGACCGCATCTATGGATGAATT
modifications: misc_feature 1..344: note = Inhibitory double stranded RNA; listed as RNA
For B7, the “average reduction in spore production” value is reported as 51% under setting [1] and 22% (A. thaliana whole plant assay).

B8: OEC60/OEC61 dsRNA: long dsRNA against G. orontii effector candidate 60/61 (target SEQ ID NO:122) (nucleic acid)
chain: CACAAAATGGGCCAAATGGGAAATTGTCGAGCTAATTGTGATTGGAAACGAAGCCCTATTTAATGGCCATACTTCTCCAGATGAGCTCGCAAGATTTATTAGCTCAACCAGAAATACACTACGATCCTCTGGTTACAATGGACCTTGCACAACAGCTGAGCCTCTCAATATCTGGCAGCAAAGCTCGGATGTATTGTGTGGT
modifications: misc_feature 1..202: note = Inhibitory double stranded RNA; listed as RNA
As for B8, for the setting “A. thaliana whole plant assay”, the “effect on spore production” value is “significantly reduced spore production”.

B9: APC1 dsRNA: dsRNA against G. orontii APC1, Anaphase promoting complex/20S cyclosome subunit (target SEQ ID NO:163) (nucleic acid)
chain: AGATTGGTATTATCTCGCCTGAATATGCAACGTTTAGAAGTTCTATTCAGACAAAGCCGACTCTTAATCAACGCAAGGTTTTTACGGTGGCGCCGCCCTTGTGCGCTTCTGACGATGTACAGGAGAATTCTTGTATTATTTGTATCCTTGATCCTAATGAAAAGAAACTTATTACTGTAAATTTAAATATCAAGGCCTCGGAGCAAAAAAGTGAACTCGCAAAATCGGAAAATCTAAAATCTAAGAAAGAGGCAACTACAGTGTCACTT
modifications: misc_feature 1..269: note = Inhibitory double stranded RNA; listed as RNA
Turning to B9, the “reduction in spore production” value (assay format not stated) is 48%.

B10: OEC70 dsRNA: long dsRNA against G. orontii effector candidate 70 (target SEQ ID NO:123) (nucleic acid)
chain: ACAGAGACCGTAACCGTAACTGTCTGTGCACCATCTGCCTCTGCCCATCCCTCTTCGGGATATGCTATGCCATCAGTCTATCCGGCACCAGTTTCATCAGACCCTGCCAGTCCTGCATACCCGCCAAGCGCTTCTGGTGGCTACTCCTCTCCACCACCAAACCAAACTCCAGCACCATTCACCGGCGCCGCTTCAGCAAACGCAGCTCAGGTAGTATCAGCCATTATTGCTGC
modifications: misc_feature 1..233: note = Inhibitory double stranded RNA; listed as RNA
Take B10: where the note is “A. thaliana whole plant assay”, the “effect on spore production” value is “significantly reduced spore production”.
